# Test results taken from the supplement of paper PMC9112550, “Optimization of the antimicrobial peptide Bac7 by deep mutational scanning” (BMC Biology, 2022).
# Tested on: Escherichia coli TOP10
# Experiment: shrunken log2 fold change of peptide-encoding DNA abundance (4.5 h post-induction vs induction); higher = less antimicrobial activity (less host growth inhibition)
# Settings: time post-induction: 4.5 h; library: site-saturation at positions 5, 18, 19, 20
# 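Note: peptides expressed intracellularly from a pBAD plasmid library in pooled LB shake-flask culture, induced with 0.3% L-arabinose, DNA abundance read by NGS, three biological replicates, DESeq2 with apeglm shrinkage.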
row,Sequence,shrunken log2 fold change
1,RRIRRRPPRLPRPRPRPVHQPRP,0.208
2,RRIRVRPPRLPRPRPRPCRAPRP,0.0373
3,RRIRARPPRLPRPRPRPVKTPRP,0.232
4,RRIRWRPPRLPRPRPRPEHWPRP,0.83
5,RRIRQRPPRLPRPRPRPIGNPRP,0.0843
6,RRIRFRPPRLPRPRPRPNIWPRP,-0.224
7,RRIRMRPPRLPRPRPRPTSKPRP,0.0886
8,RRIRMRPPRLPRPRPRPAPDPRP,1.15
9,RRIRKRPPRLPRPRPRPLMVPRP,0.0242
10,RRIRARPPRLPRPRPRPCSDPRP,0.431
11,RRIRIRPPRLPRPRPRPCTKPRP,-0.151
12,RRIRDRPPRLPRPRPRPNMFPRP,-0.0684
13,RRIRQRPPRLPRPRPRPVRKPRP,-0.0285
14,RRIRFRPPRLPRPRPRPPADPRP,0.789
15,RRIRQRPPRLPRPRPRPRVYPRP,0.0498
16,RRIRSRPPRLPRPRPRPCYDPRP,-0.438
17,RRIRNRPPRLPRPRPRPTCYPRP,-0.226
18,RRIRIRPPRLPRPRPRPVWRPRP,0.391
19,RRIRIRPPRLPRPRPRPKREPRP,0.0342
20,RRIRHRPPRLPRPRPRPTSDPRP,-0.302
21,RRIRGRPPRLPRPRPRPSNNPRP,0.0994
22,RRIRGRPPRLPRPRPRPHTWPRP,-0.0293
23,RRIRMRPPRLPRPRPRPFLWPRP,0.0175
24,RRIRCRPPRLPRPRPRPDWVPRP,0.0222
25,RRIRCRPPRLPRPRPRPFSAPRP,-0.565

row,Sequence,shrunken log2 fold change
1,RRIRVRPPRLPRPRPRPECKPRP,0.0339
2,RRIRQRPPRLPRPRPRPHKVPRP,-0.481
3,RRIRSRPPRLPRPRPRPQTMPRP,-0.35
4,RRIRTRPPRLPRPRPRPKHHPRP,-0.263
5,RRIRPRPPRLPRPRPRPHQSPRP,0.238
6,RRIRIRPPRLPRPRPRPWFNPRP,-1.25
7,RRIRWRPPRLPRPRPRPSAMPRP,0.252
8,RRIRWRPPRLPRPRPRPDDCPRP,-0.0829
9,RRIRQRPPRLPRPRPRPTEVPRP,-0.018
10,RRIRQRPPRLPRPRPRPPWPPRP,0.429
11,RRIRGRPPRLPRPRPRPIQKPRP,0.0229
12,RRIRVRPPRLPRPRPRPLGMPRP,-0.481
13,RRIRKRPPRLPRPRPRPVTMPRP,-0.0185
14,RRIRQRPPRLPRPRPRPLAFPRP,-0.232
15,RRIRFRPPRLPRPRPRPNITPRP,-0.633
16,RRIRVRPPRLPRPRPRPYPVPRP,-0.419
17,RRIRTRPPRLPRPRPRPQWCPRP,-0.0353
18,RRIRTRPPRLPRPRPRPELMPRP,0.0498
19,RRIRHRPPRLPRPRPRPNWFPRP,-0.0203
20,RRIRDRPPRLPRPRPRPFHQPRP,-0.0388
21,RRIRQRPPRLPRPRPRPPHVPRP,0.15
22,RRIRLRPPRLPRPRPRPVDVPRP,0.0939
23,RRIRSRPPRLPRPRPRPTEGPRP,0.139
24,RRIRVRPPRLPRPRPRPVDFPRP,-0.289
25,RRIRGRPPRLPRPRPRPYGIPRP,-0.165

row,Sequence,shrunken log2 fold change
1,RRIRYRPPRLPRPRPRPWVTPRP,-0.477
2,RRIRVRPPRLPRPRPRPYQVPRP,-0.293
3,RRIRWRPPRLPRPRPRPFAVPRP,0.157
4,RRIRGRPPRLPRPRPRPIPYPRP,-0.1
5,RRIRKRPPRLPRPRPRPWMQPRP,-0.0134
6,RRIRIRPPRLPRPRPRPYNWPRP,-0.577
7,RRIRNRPPRLPRPRPRPGFLPRP,-0.105
8,RRIRHRPPRLPRPRPRPYPTPRP,-0.219
9,RRIRIRPPRLPRPRPRPWWMPRP,-0.0772
10,RRIRMRPPRLPRPRPRPKAWPRP,0.0535
11,RRIRMRPPRLPRPRPRPNQQPRP,0.0339
12,RRIRDRPPRLPRPRPRPKHWPRP,0.723
13,RRIRPRPPRLPRPRPRPGCLPRP,0.339
14,RRIRLRPPRLPRPRPRPSTQPRP,-0.337
15,RRIRPRPPRLPRPRPRPFMYPRP,-0.0369
16,RRIRLRPPRLPRPRPRPPQRPRP,0.26
17,RRIRRRPPRLPRPRPRPISKPRP,-0.198
18,RRIRKRPPRLPRPRPRPIDNPRP,0.0107
19,RRIRDRPPRLPRPRPRPQHRPRP,-0.198
20,RRIRSRPPRLPRPRPRPVQPPRP,0.107
21,RRIRQRPPRLPRPRPRPIFAPRP,0.146
22,RRIRGRPPRLPRPRPRPWSCPRP,0.202
23,RRIRDRPPRLPRPRPRPMNPPRP,-0.0564
24,RRIRERPPRLPRPRPRPWAKPRP,-0.015
25,RRIRPRPPRLPRPRPRPWIGPRP,-0.0305

row,Sequence,shrunken log2 fold change
1,RRIRERPPRLPRPRPRPDDYPRP,-0.118
2,RRIRMRPPRLPRPRPRPNYEPRP,-0.122
3,RRIRDRPPRLPRPRPRPNRCPRP,0.0339
4,RRIRHRPPRLPRPRPRPKFEPRP,-0.125
5,RRIRYRPPRLPRPRPRPEFRPRP,-0.0207
6,RRIRNRPPRLPRPRPRPAQEPRP,0.0303
7,RRIRQRPPRLPRPRPRPGNRPRP,-0.0286
8,RRIRKRPPRLPRPRPRPQLMPRP,1.59
9,RRIRRRPPRLPRPRPRPQMDPRP,-0.0632
10,RRIRNRPPRLPRPRPRPQLKPRP,-0.0663
11,RRIRSRPPRLPRPRPRPREEPRP,0.369
12,RRIRDRPPRLPRPRPRPFRPPRP,0.0778
13,RRIRDRPPRLPRPRPRPERIPRP,-0.0322
14,RRIRKRPPRLPRPRPRPHPAPRP,0.429
15,RRIRLRPPRLPRPRPRPALEPRP,0.155
16,RRIRLRPPRLPRPRPRPISYPRP,-0.334
17,RRIRERPPRLPRPRPRPQPSPRP,0.0462
18,RRIRARPPRLPRPRPRPAHGPRP,0.694
19,RRIRSRPPRLPRPRPRPRPFPRP,0.188
20,RRIRERPPRLPRPRPRPFMPPRP,-0.777
21,RRIRLRPPRLPRPRPRPGFIPRP,0.452
22,RRIRFRPPRLPRPRPRPDGRPRP,0.023
23,RRIRPRPPRLPRPRPRPVMRPRP,0.95
24,RRIRNRPPRLPRPRPRPQMAPRP,-0.23
25,RRIRARPPRLPRPRPRPDHGPRP,-0.144

row,Sequence,shrunken log2 fold change
1,RRIRMRPPRLPRPRPRPGANPRP,1.17
2,RRIRARPPRLPRPRPRPTCQPRP,0.431
3,RRIRGRPPRLPRPRPRPDARPRP,0.34
4,RRIRVRPPRLPRPRPRPMDEPRP,0.422
5,RRIRQRPPRLPRPRPRPYYEPRP,-0.172
6,RRIRFRPPRLPRPRPRPEQLPRP,0.178
7,RRIRERPPRLPRPRPRPVSAPRP,0.148
8,RRIRTRPPRLPRPRPRPPMRPRP,0.957
9,RRIRWRPPRLPRPRPRPAIRPRP,0.639
10,RRIRARPPRLPRPRPRPCPQPRP,-0.00027
11,RRIRLRPPRLPRPRPRPELTPRP,0.067
12,RRIRMRPPRLPRPRPRPCIVPRP,-0.0122
13,RRIRRRPPRLPRPRPRPKLRPRP,1.25
14,RRIRLRPPRLPRPRPRPKFHPRP,-0.174
15,RRIRPRPPRLPRPRPRPQPKPRP,0.147
16,RRIRIRPPRLPRPRPRPFEIPRP,-0.0373
17,RRIRLRPPRLPRPRPRPEYYPRP,-0.0599
18,RRIRLRPPRLPRPRPRPHYFPRP,-0.404
19,RRIRKRPPRLPRPRPRPHVHPRP,-0.105
20,RRIRQRPPRLPRPRPRPNCWPRP,0.0822
21,RRIRYRPPRLPRPRPRPDACPRP,-0.045
22,RRIRLRPPRLPRPRPRPRKLPRP,-0.0264
23,RRIRQRPPRLPRPRPRPIGWPRP,0.256
24,RRIRNRPPRLPRPRPRPSCMPRP,-0.755
25,RRIRNRPPRLPRPRPRPNSVPRP,-0.0503

row,Sequence,shrunken log2 fold change
1,RRIRIRPPRLPRPRPRPNCWPRP,0.0114
2,RRIRTRPPRLPRPRPRPSYKPRP,-0.594
3,RRIRHRPPRLPRPRPRPCYWPRP,-0.026
4,RRIRIRPPRLPRPRPRPMQAPRP,-0.00238
5,RRIRCRPPRLPRPRPRPALNPRP,0.179
6,RRIRARPPRLPRPRPRPPNEPRP,0.716
7,RRIRERPPRLPRPRPRPFMEPRP,-0.00484
8,RRIRQRPPRLPRPRPRPFHHPRP,-0.0143
9,RRIRVRPPRLPRPRPRPHEYPRP,-0.419
10,RRIRKRPPRLPRPRPRPLYAPRP,0.0609
11,RRIRHRPPRLPRPRPRPKVDPRP,-0.0132
12,RRIRNRPPRLPRPRPRPMHYPRP,-0.13
13,RRIRTRPPRLPRPRPRPNTQPRP,-0.0477
14,RRIRGRPPRLPRPRPRPHAPPRP,1.23
15,RRIRERPPRLPRPRPRPCQSPRP,-0.127
16,RRIRLRPPRLPRPRPRPMVGPRP,-0.135
17,RRIRWRPPRLPRPRPRPKVFPRP,-0.00123
18,RRIRERPPRLPRPRPRPQDLPRP,-0.351
19,RRIRMRPPRLPRPRPRPNALPRP,0.313
20,RRIRARPPRLPRPRPRPDLWPRP,1.51
21,RRIRSRPPRLPRPRPRPNMMPRP,-0.166
22,RRIRLRPPRLPRPRPRPIIMPRP,-0.252
23,RRIRDRPPRLPRPRPRPTFYPRP,-0.286
24,RRIRARPPRLPRPRPRPDEMPRP,0.546
25,RRIRWRPPRLPRPRPRPFRFPRP,-0.0501
